The source of these data is paper PMC2647301.

In this series the target is T1, Y2 I-AniI (Aspergillus nidulans (mitochondrial)?, UniProt P03880 235-488, F247Y;S345Y;F314K;L466K).
T1 sequence: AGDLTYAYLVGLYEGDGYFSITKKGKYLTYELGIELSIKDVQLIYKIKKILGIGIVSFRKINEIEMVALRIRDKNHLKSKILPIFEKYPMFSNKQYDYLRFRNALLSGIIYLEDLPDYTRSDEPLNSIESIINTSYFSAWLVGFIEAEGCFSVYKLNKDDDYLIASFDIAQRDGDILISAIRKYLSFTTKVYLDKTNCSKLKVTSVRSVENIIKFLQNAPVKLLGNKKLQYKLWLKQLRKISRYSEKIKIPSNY
Nature of the series: X-ray crystallography.

B1: Y2 co-crystal I-AniI target duplex (dsDNA)
DNA 1: GCGCGCTGAGGAGGTTTCTCTGTAAAGCGCA
DNA 2: GCGCTTTACAGAGAAACCTCCTCAGCGCGCT
Turning to B1, the binding result is on record as “binds”.
